Results on one molecule are retold here after patent publication CN118005785A (BEILAI PHARMACEUTICAL CO LTD, dated 2024).

A word on the Kd: it is the free concentration of one partner at which half of the binding sites on the other are occupied at equilibrium, for simple one-to-one binding. For orientation: EC50 means the concentration giving half of the maximal effect. A lower EC50 goes with higher potency in that assay.

The target of assay [1] is T1, Human IL-17A重组蛋白 (IL-17A-His) (human, UniProt Q16552 24-155, limits assumed, biotinylated in the ELISA of paragraph 276 (Biotin-IL-17A-His); site not stated).
T1 sequence: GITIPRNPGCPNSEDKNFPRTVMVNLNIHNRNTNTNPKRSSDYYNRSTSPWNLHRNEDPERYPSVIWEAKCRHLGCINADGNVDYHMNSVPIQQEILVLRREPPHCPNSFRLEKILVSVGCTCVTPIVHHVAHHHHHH
Put plainly: cell-based or functional assay.

Assay [2] has as its target T1, Human IL-17A重组蛋白 (IL-17A-His). Put plainly: BLI, ForteBio OCTET R2, IL-17A-His immobilised on the sensor at 5 ug/mL, antibody 50-3.13 nM, 25℃. (In general: BLI is a label-free optical method that tracks binding on a fibre tip over time.)
Assay [3] shares this target. Put plainly: ELISA, antibody coated at 2 ug/mL, Biotin-IL-17A-His titrated from 10 ug/mL, HRP-Streptavidin detection.

B1: Ixekizumab (antibody, human IgG4 S228P, kappa, V domains shown)
VH: QVQLVQSGAEVKKPGSSVKVSCKASGYSFTDYHIHWVRQAPGQGLEWMGVINPMYGTTDYNQRFKGRVTITADESTSTAYMELSSLRSEDTAVYYCARYDYFTGTGVYWGQGTLVTVSS
VL: DIVMTQTPLSLSVTPGQPASISCRSSRSLVHSRGNTYLHWYLQKPGQSPQLLIYKVSNRFIGVPDRFSGSGSGTDFTLKISRVEAEDVGVYYCSQSTHLPFTFGQGTKLEIKR
notes: Made in-house in 293F cells from the synthesised variable regions cloned into hIgG4 and hIgKc vectors; purified on Protein A; also called 阳性对照抗体Ixekizumab; 阳性抗体
B1: the “IC50, luciferase activity of 293F-IL-17RA-IL-17Rc-ACT1-NFκB-Luc reporter cells stimulated with 0.1 μg/mL IL-17A” value in assay [1] was 2.23 nM. The Kd in assay [2] came to 0.391 nM. In assay [3], the EC50 was 10.1 µg/mL.
